{
  "source": "paper doi:10.1101/2020.06.26.173310",
  "about": "(bioRxiv, 2020)",
  "proteins": {"B1": {"name": "response regulator from Agrobacterium fabrum (AtRR) (natural protein, Agrobacterium fabrum strain C58)", "chain": "MPELRPILLVEDNPRDLELTLTALEKCQLANEVVVARDGTEALDYLNVTGSHHNRPGGDPAVVLLDLKLPKVDGLEVLQTVKGSDHLRHIPVVMLTSSREEQDLVKSYELGVNAFVVKPVEFNQFFKAIQDLGVFWALLNE"}, "B2": {"name": "bacteriophytochrome from Deinococcus radiodurans (DrBphP) (natural protein, Deinococcus radiodurans strain R1, UniProt Q9RZA4 1-755, looked up)", "chain": "MSRDPLPFFPPLYLGGPEITTENCEREPIHIPGSIQPHGALLTADGHSGEVLQMSLNAATFLGQEPTVLRGQTLAALLPEQWPALQAALPPGCPDALQYRATLDWPAAGHLSLTVHRVGELLILEFEPTEAWDSTGPHALRNAMFALESAPNLRALAEVATQTVRELTGFDRVMLYKFAPDATGEVIAEARREGLHAFLGHRFPASDIPAQARALYTRHLLRLTADTRAAAVPLDPVLNPQTNAPTPLGGAVLRATSPMHMQYLRNMGVGSSLSVSVVVGGQLWGLIACHHQTPYVLPPDLRTTLEYLGRLLSLQVQVKEAADVAAFRQSLREHHARVALAAAHSLSPHDTLSDPALDLLGLMRAGGLILRFEGRWQTLGEVPPAPAVDALLAWLETQPGALVQTDALGQLWPAGADLAPSAAGLLAISVGEGWSECLVWLRPELRLEVAWGGATPDQAKDDLGPRHSFDTYLEEKRGYAEPWHPGEIEEAQDLRDTLTGALGERLSVIRDLNRALTQSNAEWRQYGFVISHHMQEPVRLISQFAELLTRQPRAQDGSPDSPQTERITGFLLRETSRLRSLTQDLHTYTALLSAPPPVRRPTPLGRVVDDVLQDLEPRIADTGASIEVAPELPVIAADAGLLRDLLLHLIGNALTFGGPEPRIAVRTERQGAGWSIAVSDQGAGIAPEYQERIFLLFQRLGSLDEALGNGLGLPLCRKIAELHGGTLTVESAPGEGSTFRCWLPDAGPLPGAADA", "modifications": "biliverdin IXα chromophore, thioether linkage to the conserved cysteine within the PAS domain"}},
  "key": {"SEC [1]": {"target": "the molecule itself", "test": "SEC"}, "SEC [2]": {"target": "the molecule itself", "test": "SEC", "remark": "listed apart in the source"}},
  "note": "Where two headings read alike, the source gives them in different places.",
  "data": [
    {"protein": "B1", "values": [
      {"measurement": "stoichiometry N", "setting": "SEC [1]", "result": 2}
    ]},
    {"protein": "B2", "values": [
      {"measurement": "stoichiometry N", "setting": "SEC [2]", "result": 2}
    ]}
  ]
}
